Experimental data taken from US20090136500A1.

How the values were obtained:
[1] = molecular target: PAI-1 (immobilized antigen of the P-ELISA of Figure 13, species not stated); assay: P-ELISA on immobilized biotin-labeled PAI-1 (species not stated), antibody with EDTA, A450
[2] = molecular target: PAI-1 (antigen of Example 11, species not stated); assay: SPR-type biosensor, 25 C, global 1:1 fit (format for mP-1 not given)
PAI-1 (antigen of Example 11, species not stated), sequence (P05121 24-402): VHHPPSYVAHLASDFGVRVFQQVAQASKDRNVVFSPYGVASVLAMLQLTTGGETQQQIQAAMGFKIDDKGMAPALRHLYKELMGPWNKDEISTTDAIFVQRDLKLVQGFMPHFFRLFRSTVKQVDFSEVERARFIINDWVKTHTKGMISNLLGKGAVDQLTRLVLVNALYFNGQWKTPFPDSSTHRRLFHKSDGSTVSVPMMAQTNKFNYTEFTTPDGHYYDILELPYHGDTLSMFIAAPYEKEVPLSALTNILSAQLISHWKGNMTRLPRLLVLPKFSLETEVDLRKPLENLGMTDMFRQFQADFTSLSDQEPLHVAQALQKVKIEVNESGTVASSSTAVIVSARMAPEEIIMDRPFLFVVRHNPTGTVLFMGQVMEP

PAI-1 (immobilized antigen of the P-ELISA of Figure 13, species not stated), sequence (P05121 24-402): as above

EC50 (read off the curve) [1]: 0.1 µg/mL | Kd [2]: 8.01 nM | koff [2]: 0.00314 s⁻¹ | kon [2]: 393000 M⁻¹ s⁻¹
B1: murine monoclonal antibody 33B8 (antibody, V domains shown)
VH: QIQLVQSGPELKKPGKTVTISCKASGYTFTNYGMNWVKQAPGKGLKWMGWINTYTGEPTYTDDFKGRFAFSLDTSASTAYLQISNLKNEDTATYFCAKDVSGFVFDYWGQGTTVTVSS
VL: DIVMTQSPSSLAVSVGEKVTMSCKSSQSLLNIIKQKNCLAWYQQKPGQSPKLLIYWASTRESGVPDRFTGSGSGTDFTLTISSVKAEDLAVYYCQQYYSYPYTFGGGTKLEIK
